Legend:
[1] = Water activity (Aqua lab water activity meter); assay type: physicochemical; conditions: REV, 10% SMP, 10 Torr (200 W)
Protocol: (§1) The puffed foam material was removed from the drier and packed in polyethylene bags. The final moisture content and water activity of the dried foams were measured after 24 hours of drying (allow the sample to equilibrate) using air oven method and Aqua lab water activity meter (model series 3, Decagon Device Inc., Washington, USA).
as §1, with “structure” for “material”
The water activity of the samples before microwave vacuum drying, immediately after drying and during storage was measured (Aqualab R Model series 3, Decagon Devices, Inc., Washington, USA).

[2] = system: Micrococcus luteus cell wall suspension; assay: Lysozyme activity, turbidity assay; assay type: biochemical; conditions: lysozyme-chitosan 1:3 pastes; for lysozyme enzymatic activity after drying: t-REV 300 Watts, 30 Torr, 10 min
Protocol: Lysozyme activity was determined by the turbidity assay method using freeze-dried Micrococcus luteus cell wall suspension.

[3] = cited from earlier work

Substance	aw [1]	increase in lysozyme activity after t-REV ([2]; before versus after t-REV)	lysozyme enzymatic activity after drying [2]	lysozyme enzymatic activity after drying ([2]; listed as Lysozyme)	retention during pelleting ([3]; encapsulated with hydrogenated vegetable oil and calcium stearate)	loss after the feed pelleting process ([3]; unprotected lysozyme, pelleting at 195° F.)
Bifidobacterium longum	0.36 ± 0.01	–	–	–	–	–
lysozyme: Lysozyme extracted from chicken egg-white (Neova Technologies Inc.)	–	about 10%	no enzymatic activity loss	retained its activity	up to 75%	More than 50%

From US8877469B2, “Method of drying biological material” (Enwave Corporation, priority 2004, dated 2014)
